Measurements: patent publication US20220127355A1 (INTEGRAL MOLECULAR, published 2022)

What was measured:
T33A = target: T1, T33A; assay: Shotgun Mutagenesis epitope mapping; mean (range), % of wild-type Claudin 6
T1 construct: Shotgun Mutagenesis mutant; also called Claudin 6 T33A
T1 chain: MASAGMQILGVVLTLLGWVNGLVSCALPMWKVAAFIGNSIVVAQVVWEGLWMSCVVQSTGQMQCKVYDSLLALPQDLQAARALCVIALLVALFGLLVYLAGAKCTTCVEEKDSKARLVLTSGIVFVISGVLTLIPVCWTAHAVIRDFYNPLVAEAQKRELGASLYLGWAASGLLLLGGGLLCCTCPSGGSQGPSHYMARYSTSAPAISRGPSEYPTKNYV

V45A = target: T2, V45A; assay: as above
T2 construct: Shotgun Mutagenesis mutant; also called Claudin 6 V45A
T2 chain: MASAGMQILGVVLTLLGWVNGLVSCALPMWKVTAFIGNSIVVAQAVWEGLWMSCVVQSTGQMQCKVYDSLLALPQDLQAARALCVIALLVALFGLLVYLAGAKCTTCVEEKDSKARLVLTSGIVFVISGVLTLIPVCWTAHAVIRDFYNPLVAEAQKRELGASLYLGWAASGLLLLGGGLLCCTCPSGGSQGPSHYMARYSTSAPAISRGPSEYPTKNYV

D76A = target: T3, D76A; assay: as above
T3 construct: Shotgun Mutagenesis mutant; also called Claudin 6 D76A
T3 chain: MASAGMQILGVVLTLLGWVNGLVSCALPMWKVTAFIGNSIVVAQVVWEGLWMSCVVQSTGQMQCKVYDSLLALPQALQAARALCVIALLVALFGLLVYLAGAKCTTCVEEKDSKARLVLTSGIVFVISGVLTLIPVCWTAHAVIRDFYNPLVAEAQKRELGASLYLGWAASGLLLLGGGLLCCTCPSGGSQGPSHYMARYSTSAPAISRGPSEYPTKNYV

Q156L = target: T4, Q156L; assay: as above
T4 construct: Shotgun Mutagenesis mutant; also called Claudin 6 Q156L
T4 chain: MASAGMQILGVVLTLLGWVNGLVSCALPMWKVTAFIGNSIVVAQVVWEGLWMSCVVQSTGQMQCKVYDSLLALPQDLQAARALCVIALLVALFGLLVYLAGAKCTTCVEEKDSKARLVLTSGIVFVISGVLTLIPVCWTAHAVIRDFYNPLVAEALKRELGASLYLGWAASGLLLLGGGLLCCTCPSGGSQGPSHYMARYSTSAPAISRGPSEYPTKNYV

D68A = target: T5, D68A; assay: as above
T5 construct: Shotgun Mutagenesis mutant; also called Claudin 6 D68A
T5 chain: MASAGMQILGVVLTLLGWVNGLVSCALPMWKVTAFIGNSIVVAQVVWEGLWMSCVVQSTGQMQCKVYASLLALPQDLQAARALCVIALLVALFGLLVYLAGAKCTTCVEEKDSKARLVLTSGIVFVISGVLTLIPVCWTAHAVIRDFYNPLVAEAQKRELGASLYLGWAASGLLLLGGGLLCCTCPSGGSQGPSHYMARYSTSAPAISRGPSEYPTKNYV

R158A = target: T6, R158A; assay: as above
T6 construct: Shotgun Mutagenesis mutant; also called Claudin 6 R158A
T6 chain: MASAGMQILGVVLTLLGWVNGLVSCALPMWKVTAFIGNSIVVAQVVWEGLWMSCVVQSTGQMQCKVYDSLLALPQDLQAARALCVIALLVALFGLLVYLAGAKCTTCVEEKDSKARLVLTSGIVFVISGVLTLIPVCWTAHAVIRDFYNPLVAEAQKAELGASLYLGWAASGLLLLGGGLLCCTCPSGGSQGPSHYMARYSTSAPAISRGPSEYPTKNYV

E154A = target: T7, E154A; assay: as above
T7 construct: Shotgun Mutagenesis mutant; also called Claudin 6 E154A
T7 chain: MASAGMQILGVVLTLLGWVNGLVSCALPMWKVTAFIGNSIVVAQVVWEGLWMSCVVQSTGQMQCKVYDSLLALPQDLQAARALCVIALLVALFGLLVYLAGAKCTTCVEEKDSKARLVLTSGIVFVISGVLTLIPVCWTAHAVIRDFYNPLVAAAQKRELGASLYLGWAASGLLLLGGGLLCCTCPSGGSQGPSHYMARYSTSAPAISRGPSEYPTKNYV

Claudin 6 (human) [1] = target: T8, Claudin 6 (human) (human, UniProt P56747 1-220); assay: biosensor (Forte Octet), intact claudin in virus-like particles (lipoparticles)
T8 construct: Expressed on transfected HEK-293T cells or naturally on PA-1 cells for flow cytometry; For the Octet KD values it was the intact protein embedded in virus-like particles (lipoparticles); also called hsCLDN6; CLDN6
T8 chain: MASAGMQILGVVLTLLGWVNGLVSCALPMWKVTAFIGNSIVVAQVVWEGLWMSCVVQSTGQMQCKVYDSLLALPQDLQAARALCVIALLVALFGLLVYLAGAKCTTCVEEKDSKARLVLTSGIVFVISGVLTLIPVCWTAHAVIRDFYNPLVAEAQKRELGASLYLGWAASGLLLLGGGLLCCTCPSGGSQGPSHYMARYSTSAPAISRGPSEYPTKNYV
Procedure: Affinity of various antibodies against CLDN6 as compared to CLDN9, CLDN3, and CLDN4 was measured using a biosensor. Biosensor affinity measurement of the various antibodies against the proteins was determined using a Forte Octet, which was used for biosensor measurements, using intact claudin proteins embedded in virus-like particles (lipoparticles). The KD for different antibodies is shown below.

Claudin 6 (human) [2] = target: T8, Claudin 6 (human); assay: flow cytometry, HEK-293T cells transiently transfected with human Claudin 6 (hsCLDN6); pUC = empty vector control
Procedure: FIG. 1 illustrates the results of a binding assay showing that Claudin 6 MAbs bind to human Claudin 6. Human embryonic kidney 293T (HEK-293T) cells were transiently transfected with DNA for human Claudin 6 (hsCLDN6) or empty vector along with GFP (pUC) for 22 hours. Claudin 6 MAbs (IM136, IM171, IM172, and IM173) were added at serial dilutions (0.0-10 μg/mL) and incubated for 90 min with shaking. After a wash step, secondary antibody for detection (allophycocyanin-conjugated mouse anti-human IgG Fc; Southern Biotech) was added and incubated for 30-45 min. Cells were washed, and fluorescence was detected by high-throughput Intellicyt flow cytometry, with gating by graphing forward scatter against side scatter. Data were analyzed in GraphPad Prism software based on the geometric mean of fluorescence intensity for the cell population in each well.

| Binder | Binding Reactivity (% WT) (T33A) | Binding Reactivity (% WT) (V45A) | Binding Reactivity (% WT) (D76A) | Binding Reactivity (% WT) (Q156L) | Binding Reactivity (% WT) (D68A) | Binding Reactivity (% WT) (R158A) | Binding Reactivity (% WT) (E154A) | Kd (Claudin 6 (human) [1]) | EC50 (read off the curve) (Claudin 6 (human) [2]) |
| --- | --- | --- | --- | --- | --- | --- | --- | --- | --- |
| IM171 (antibody, V domains shown, Detected with anti-human IgG Fc secondary; also called LM171) VH: AVTLDESGGGLQTPGGALSLVCKASGFDFSSYAMNWVRQAPGKGLEWVAGIGSTGSSTGYGPAVKGRATISRDNGQSTLRLQLNNLRAEDTAIYYCAKSVGNGNSWSGYIATSIDAWGHGTEVIVSS VL: ALTQPSSVSANLGGTVKLTCSGGSSGYGWYQQKSPGSAPVTVIYSNDKRPSDIPSRFSGSLSGSTGTLTITGVQADDEAVYFCGSTDNSYVGIFGAGTTLTVL | 22.8 % WT | 88.4 % WT | 6 % WT | 10 % WT | 93.7 % WT | 1.3 % WT | 4 % WT | 3 nM | ~0.4 µg/mL |
| IM173 (antibody, V domains shown, Detected with anti-human IgG Fc secondary) VH: AVTLDESGGGLQTPGGALSLVCKASGFTFSSYSMFWVRRAPGKGLEWVAGIDSGSTTFYGSAVKGRATISRDNGQSTVRLQLNNLRAEDTATYYCAKDAYGYCGWSGCSADSIDAWGHGTEVIVSS VL: ALTQPSSVSANPGGTVEITCSGGNNYYGWYQQKSPGSAPVTVIYYNDKRPSDIPSRFSGSKSGSTGTLTITGVQADDEAVYFCGGWDSSGGIFGAGTTLTVL | 116 % WT | 76.1 % WT | 76.8 % WT | 10.7 % WT | 89.6 % WT | 3.6 % WT | 134 % WT | 0.32 nM | ~0.4 µg/mL |
